# Measured values from patent publication US20180371086A1 (Gilead, published 2018).
# B1: PGT121.60 hIgG1/hLambda (antibody, V domains shown)
# VH: QMQLQESGPGLVKPSETLSLTCSVSGASISDSYWSWIRRSPGKGLEWIGYVHKSGDTNYNPSLKSRVHLSLDTSKNQVSLSLTGVTAADSGKYYCARTLHGRRIYGIVAFNEWFTYFYMDVWGTGTQVTVSS
# VL: SDISVAPGETARISCGEKSLGSRAVQWYQHRAGQAPSLIIYNNQDRPSGIPERFSGSPDSRPGTTATLTITSVEAGDEADYYCHIWDSRVPTKWVFGGGTTLTVLG
# Experiments:
# Experiment in all cases: cell-based or functional assay
# [1] = molecular target: HIV-1 Env of subtype B isolate MGRM-B-105 (HIV-1)
# [2] = molecular target: HIV-1 Env of subtype B isolate MGRM-B-118 (HIV-1)
# [3] = molecular target: HIV-1 Env of subtype B isolate MGRM-B-106 (HIV-1)
# [4] = molecular target: HIV-1 Env of subtype B isolate MGRM-B-111 (HIV-1)
# [5] = molecular target: HIV-1 Env of subtype B isolate MGRM-B-110 (HIV-1)
# [6] = molecular target: HIV-1 Env of subtype B isolate MGRM-B-136 (HIV-1)
# [7] = molecular target: HIV-1 Env of subtype B isolate MGRM-B-115 (HIV-1)
# [8] = molecular target: HIV-1 Env of subtype B isolate MGRM-B-132 (HIV-1)
# [9] = molecular target: HIV-1 Env of subtype B isolate MGRM-B-112 (HIV-1)
# [10] = molecular target: HIV-1 Env of subtype B virus 15-101608 (HIV-1)
# [11] = molecular target: HIV-1 Env of subtype B virus 15-124904 (HIV-1)
# [12] = molecular target: HIV-1 Env of subtype B virus 15-124962 (HIV-1)
# [13] = molecular target: HIV-1 Env of subtype B virus 15-124963 (HIV-1)
# [14] = molecular target: HIV-1 Env of subtype B virus 15-102514 (HIV-1)
# [15] = molecular target: HIV-1 Env of subtype B virus 15-124986 (HIV-1)
# [16] = molecular target: HIV-1 Env of subtype B virus 15-101757 (HIV-1)
# [17] = molecular target: HIV-1 Env of subtype B virus 15-124950 (HIV-1)
# [18] = molecular target: HIV-1 Env of subtype B virus 15-124934 (HIV-1)
# [19] = molecular target: HIV-1 Env of subtype B virus 15-124914 (HIV-1)
# [20] = molecular target: HIV-1 Env of subtype B virus 15-124964 (HIV-1)
# [21] = molecular target: HIV-1 Env of subtype B virus 15-124906 (HIV-1)
# [22] = molecular target: HIV-1 Env of subtype B virus 15-124918 (HIV-1)
# [23] = molecular target: HIV-1 Env of subtype B virus 15-124970 (HIV-1)
# [24] = molecular target: HIV-1 Env of subtype B virus 15-124987 (HIV-1)
# [25] = molecular target: HIV-1 Env of subtype B virus 15-124975 (HIV-1)
# [26] = molecular target: HIV-1 Env of the lab adapted HIV-1 BaL strain (HIV-1)
# [27] = molecular target: HIV-1 Env of subtype B isolate 92US727 (HIV-1)
# [28] = molecular target: HIV-1 Env of subtype B isolate 92US657 (HIV-1)
# [29] = molecular target: HIV-1 Env of subtype B isolate 92US712 (HIV-1)
# [30] = molecular target: HIV-1 Env of subtype B isolate 93HT593 (HIV-1)
binder,measurement,setting,value
B1,"Neutralization activity, IC50",[1],0.0076 µg/mL
same,"Neutralization activity, IC50",[2],3.31 µg/mL
same,"Neutralization activity, IC50",[3],0.001 µg/mL
same,"Neutralization activity, IC50",[4],0.955 µg/mL
same,"Neutralization activity, IC50",[5],0.0113 µg/mL
same,"Neutralization activity, IC50",[6],0.0071 µg/mL
same,"Neutralization activity, IC50",[7],0.141 µg/mL
same,"Neutralization activity, IC50",[8],0.0077 µg/mL
same,"Neutralization activity, IC50",[9],0.0058 µg/mL
same,"Neutralization potency, IC50",[10],1.84 µg/mL
same,"Neutralization potency, IC50",[11],0.0121 µg/mL
same,"Neutralization potency, IC50",[12],0.0277 µg/mL
same,"Neutralization potency, IC50",[13],2.05 µg/mL
same,"Neutralization potency, IC50",[14],0.0128 µg/mL
same,"Neutralization potency, IC50",[15],0.0015 µg/mL
same,"Neutralization potency, IC50",[16],0.0132 µg/mL
same,"Neutralization potency, IC50",[17],0.0995 µg/mL
same,"Neutralization potency, IC50",[18],0.797 µg/mL
same,"Neutralization potency, IC50",[19],0.002 µg/mL
same,"Neutralization potency, IC50",[20],0.0026 µg/mL
same,"Neutralization potency, IC50",[21],0.0103 µg/mL
same,"Neutralization potency, IC50",[22],0.0018 µg/mL
same,"Neutralization potency, IC50",[23],0.0285 µg/mL
same,"Neutralization potency, IC50",[24],0.0163 µg/mL
same,"Neutralization potency, IC50",[25],0.105 µg/mL
same,"Neutralization potency, IC50",[26],0.007 µg/mL
same,"Neutralization potency, IC50",[27],0.007 µg/mL
same,"Neutralization potency, IC50",[28],0.062 µg/mL
same,"Neutralization potency, IC50",[29],0.008 µg/mL
same,"Neutralization potency, IC50",[30],0.141 µg/mL
